# Results as given in US11267868 (dated 2022).
# Numbering of substitutions follows the chain as printed.
# T1: FcgRIIaR (human, UniProt P12318)
# T1 chain: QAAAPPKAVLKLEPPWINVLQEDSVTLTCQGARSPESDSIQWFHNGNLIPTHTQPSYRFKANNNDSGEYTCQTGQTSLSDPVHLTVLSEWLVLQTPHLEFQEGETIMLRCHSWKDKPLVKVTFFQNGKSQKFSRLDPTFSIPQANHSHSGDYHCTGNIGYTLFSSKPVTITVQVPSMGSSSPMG
# T2: FcgRIIb (human, UniProt P31994)
# T2 chain: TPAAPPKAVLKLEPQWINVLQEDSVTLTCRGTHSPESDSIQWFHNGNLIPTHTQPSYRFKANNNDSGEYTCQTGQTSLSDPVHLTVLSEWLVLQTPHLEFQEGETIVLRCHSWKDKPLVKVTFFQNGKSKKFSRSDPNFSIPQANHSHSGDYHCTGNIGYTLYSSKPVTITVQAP
# T3: FcgRIIaH (human, UniProt P12318)
# T3 chain: T1 chain with R134H
# T4: FcgRIa (human, UniProt P12314)
# T4 chain: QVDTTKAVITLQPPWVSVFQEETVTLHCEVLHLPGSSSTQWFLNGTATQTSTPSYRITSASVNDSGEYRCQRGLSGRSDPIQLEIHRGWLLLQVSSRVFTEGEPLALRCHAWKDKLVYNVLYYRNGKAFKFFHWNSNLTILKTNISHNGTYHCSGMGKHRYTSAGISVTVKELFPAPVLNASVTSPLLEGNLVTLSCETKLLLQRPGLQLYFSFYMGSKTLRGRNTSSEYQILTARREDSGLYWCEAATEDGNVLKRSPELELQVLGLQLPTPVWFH
# B1: IL6R-P729/IL6R-L (antibody)
# chain 1: QVQLQESGPGLVKPSETLSLTCAVSGHSISHDHAWSWVRQPPGEGLEWIGFISYSGITNYNPSLQGRVTISRDNSKNTLYLQMNSLRAEDTAVYYCARSLARTTAMDYWGEGTLVTVSSASTKGPSVFPLAPSSKSTSGGTAALGCLVKDYFPEPVTVSWNSGALTSGVHTFPAVLQSSGLYSLSSVVTVPSSSLGTQTYICNVNHKPSNTKVDKKVEPKSCDKTHTCPPCPAPELFGQDSVMLFPPKPKDTLMISRTPEVTCVVVDVSPEDPEVKFNWYVDGVEVHNAKTKPREEQENSTYRVVSVLTVLHQDWLNGKEYKCKVSNKALPAPIEKTISKAKGQPREPQVYTLPPSRDELTKNQVSLTCLVKGFYPSDIAVEWESNGQPENNYKTTPPVLDSDGSFFLYSKLTVDKSRWQQGNVFSCSVMHEALHNHYTQKSLSLSP
# chain 2: not shown
# B2: IL6R-P687/IL6R-L (antibody)
# chain 1: B1 chain 1 with F237L, Q239G, M243F, P270H, E298Y, S300A, S326N, A332H
# chain 2: not shown
# B3: IL6R-P661/IL6R-L (antibody)
# chain 1: B1 chain 1 with F237L, Q239G, M243F, P270H, E298Y, S300A, A332H
# chain 2: not shown
# B4: IL6R-P692/IL6R-L (antibody)
# chain 1: B1 chain 1 with P270H, A332H
# chain 2: not shown
# B5: IL6R-P688/IL6R-L (antibody)
# chain 1: B1 chain 1 with F237L, Q239G, S326N
# chain 2: not shown
# B6: IL6R-P653/IL6R-L (antibody)
# chain 1: B1 chain 1 with F237L, Q239G
# chain 2: not shown
# B7: IL6R-P689/IL6R-L (antibody)
# chain 1: B1 chain 1 with F237L, Q239G, S326H
# chain 2: not shown
# B8: IL6R-P726/IL6R-L (antibody)
# chain 1: B1 chain 1 with F237L, P270H, S326H, A332H
# chain 2: not shown
# B9: IL6R-P591/IL6R-L (antibody)
# chain 1: B1 chain 1 with F237L, Q239G, P270H
# chain 2: not shown
# B10: IL6R-P602/IL6R-L (antibody)
# chain 1: B1 chain 1 with F237L, Q239G, P270H, Q297V
# chain 2: not shown
# B11: IL6R-P731/IL6R-L (antibody)
# chain 1: B1 chain 1 with F237L, S326H
# chain 2: not shown
# B12: IL6R-P732/IL6R-L (antibody)
# chain 1: B1 chain 1 with Q239G, S326H
# chain 2: not shown
# B13: IL6R-P658/IL6R-L (antibody)
# chain 1: B1 chain 1 with Q239G, P270H
# chain 2: not shown
# B14: IL6R-P735/IL6R-L (antibody)
# chain 1: B1 chain 1 with A332H
# chain 2: not shown
# B15: IL6R-P605/IL6R-L (antibody)
# chain 1: B1 chain 1 with F237L, Q239G, M243F, P270H, E298D, S300A
# chain 2: not shown
# B16: IL6R-P733/IL6R-L (antibody)
# chain 1: B1 chain 1 with S326H
# chain 2: not shown
# B17: IL6R-P737/IL6R-L (antibody)
# chain 1: B1 chain 1 with F237L, S326H, A332H
# chain 2: not shown
# B18: IL6R-P660/IL6R-L (antibody)
# chain 1: B1 chain 1 with F237L, Q239G, M243F, P270H, E298Y, S300A, S326N
# chain 2: not shown
# B19: IL6R-P690/IL6R-L (antibody)
# chain 1: B1 chain 1 with F237L, P270H, A332H
# chain 2: not shown
# B20: IL6R-P655/IL6R-L (antibody)
# chain 1: B1 chain 1 with F237L, Q239G, P270H, S326H
# chain 2: not shown
# B21: IL6R-P656/IL6R-L (antibody)
# chain 1: B1 chain 1 with F237L, Q239G, P270H, A332H
# chain 2: not shown
# B22: IL6R-P728/IL6R-L (antibody)
# chain 1: B1 chain 1 with P270H, S326H
# chain 2: not shown
# B23: IL6R-P657/IL6R-L (antibody)
# chain 1: B1 chain 1 with F237L, Q239G, P270H, A332Y
# chain 2: not shown
# B24: IL6R-P654/IL6R-L (antibody)
# chain 1: B1 chain 1 with F237L, Q239G, P270H, S326N
# chain 2: not shown
# B25: IL6R-P659/IL6R-L (antibody)
# chain 1: B1 chain 1 with F237L, P270H
# chain 2: not shown
# B26: IL6R-P734/IL6R-L (antibody)
# chain 1: B1 chain 1 with P270H, S326H, A332H
# chain 2: not shown
# B27: IL6R-P691/IL6R-L (antibody)
# chain 1: B1 chain 1 with P270H
# chain 2: not shown
# B28: IL6R-P603/IL6R-L (antibody)
# chain 1: B1 chain 1 with F237L, Q239G, P270H, V325I
# chain 2: not shown
# B29: IL6R-P693/IL6R-L (antibody)
# chain 1: B1 chain 1 with F237L, Q239G, M243F, P270H, S300A
# chain 2: not shown
# B30: IL6R-P604/IL6R-L (antibody)
# chain 1: B1 chain 1 with F237L, Q239G, P270H, S300A
# chain 2: not shown
# B31: IL6R-P727/IL6R-L (antibody)
# chain 1: B1 chain 1 with F237L, A332H
# chain 2: not shown
# Biological target: FcgRIIIaV (human, UniProt P08637)
# Sequence (P08637 17-208 F176V): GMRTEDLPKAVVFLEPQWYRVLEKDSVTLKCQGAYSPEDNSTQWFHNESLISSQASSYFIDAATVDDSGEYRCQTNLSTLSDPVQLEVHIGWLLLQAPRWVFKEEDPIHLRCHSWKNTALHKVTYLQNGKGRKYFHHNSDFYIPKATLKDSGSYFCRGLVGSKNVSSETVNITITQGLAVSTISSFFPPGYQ
# Test: SPR
row,Kd,Binder
1,56 µM,B1
2,42 µM,B2
3,29 µM,B3
4,57 µM,B4
5,44 µM,B5
6,50 µM,B6
7,52 µM,B7
8,36 µM,B8
9,44 µM,B9
10,61 µM,B10
11,53 µM,B11
12,76 µM,B12
13,71 µM,B13
14,73 µM,B14
15,44 µM,B15
16,77 µM,B16

row,Kd,Binder
1,68 µM,B17
2,30 µM,B18
3,63 µM,B19
4,46 µM,B20
5,50 µM,B21
6,50 µM,B22
7,65 µM,B23
8,48 µM,B24
9,73 µM,B25
10,100 µM,B26
11,48 µM,B27
12,83 µM,B28
13,40 µM,B29
14,40 µM,B30
15,66 µM,B31

# Biological target: T1, FcgRIIaR
# Test: SPR
row,Kd,Binder
1,83 µM,B1
2,81 µM,B2
3,41 µM,B3
4,56 µM,B4
5,58 µM,B5
6,51 µM,B6
7,78 µM,B7
8,66 µM,B8
9,37 µM,B9
10,44 µM,B10
11,110 µM,B11
12,72 µM,B12
13,33 µM,B13
14,59 µM,B14
15,60 µM,B15
16,130 µM,B16

row,Kd,Binder
1,120 µM,B17
2,50 µM,B18
3,74 µM,B19
4,42 µM,B20
5,39 µM,B21
6,74 µM,B22
7,47 µM,B23
8,39 µM,B24
9,85 µM,B25
10,68 µM,B26
11,72 µM,B27
12,47 µM,B28
13,68 µM,B29
14,64 µM,B30
15,100 µM,B31

# Biological target: T2, FcgRIIb
# Test: SPR
row,Kd,Binder
1,4.4 µM,B1
2,5.1 µM,B2
3,4 µM,B3
4,2.7 µM,B4
5,4.1 µM,B5
6,3.5 µM,B6
7,4.7 µM,B7
8,4.1 µM,B8
9,3.1 µM,B9
10,2.4 µM,B10
11,10 µM,B11
12,2.9 µM,B12
13,1.4 µM,B13
14,2.3 µM,B14
15,5.3 µM,B15
16,4.7 µM,B16

row,Kd,Binder
1,6.4 µM,B17
2,5.3 µM,B18
3,4 µM,B19
4,2.7 µM,B20
5,1.9 µM,B21
6,3.9 µM,B22
7,3.1 µM,B23
8,2.6 µM,B24
9,6.4 µM,B25
10,2.5 µM,B26
11,4.3 µM,B27
12,2.7 µM,B28
13,5.6 µM,B29
14,5.5 µM,B30
15,4.8 µM,B31

# Biological target: T3, FcgRIIaH
# Test: SPR
row,Kd,Binder
1,180 µM,B1
2,130 µM,B2
3,94 µM,B3
4,120 µM,B4
5,110 µM,B5
6,110 µM,B6
7,120 µM,B7
8,61 µM,B8
9,86 µM,B9
10,100 µM,B10
11,150 µM,B11
12,100 µM,B12
13,96 µM,B13
14,140 µM,B14
15,130 µM,B15
16,180 µM,B16

row,Kd,Binder
1,160 µM,B17
2,110 µM,B18
3,140 µM,B19
4,58 µM,B20
5,84 µM,B21
6,81 µM,B22
7,110 µM,B23
8,68 µM,B24
9,160 µM,B25
10,84 µM,B26
11,130 µM,B27
12,110 µM,B28
13,150 µM,B29
14,120 µM,B30
15,150 µM,B31

# Biological target: T4, FcgRIa
# Test: SPR
row,Kd,Binder
1,660 nM,B1
2,7 nM,B2
3,10 nM,B3
4,530 nM,B4
5,18 nM,B6
6,28 nM,B7
7,190 nM,B8
8,24 nM,B9
9,19 nM,B10
10,68 nM,B11
11,700 nM,B12
12,830 nM,B13
13,260 nM,B14
14,8.6 nM,B15
15,2500 nM,B16
16,170 nM,B17
17,7.4 nM,B18
18,310 nM,B19
19,18 nM,B20
20,28 nM,B21
21,580 nM,B22
22,17 nM,B23
23,16 nM,B24
24,80 nM,B25
25,220 nM,B26
26,760 nM,B27
27,22 nM,B28
28,7.8 nM,B29
29,230 nM,B31
